What was measured:
[1] = target: HLA-B*40:01; assay: IEDB peptide-MHC binding, purified MHC/competitive/radioactivity; filed as Kd, often an IC50 or EC50 that approximates it; ≥ and ≤ were set here for values at or beyond the usual limits of such assays
[2] = target: HLA-B*40:02; assay: as above
[3] = target: HLA-B*44:02; assay: as above
[4] = target: HLA-B*45:01; assay: as above
[5] = target: HLA-B*18:01; assay: as above
[6] = target: HLA-B*44:03; assay: as above
[7] = target: HLA-A*30:01; assay: as above
[8] = target: HLA-A*33:01; assay: as above; conditions: source organism: SARS coronavirus Tor2
[9] = target: HLA-A*68:01; assay: as above; conditions: source organism: SARS coronavirus Tor2
[10] = target: HLA-A*31:01; assay: IEDB peptide-MHC binding, purified MHC/direct/fluorescence; filed as Kd, often an IC50 or EC50 that approximates it; ≥ and ≤ were set here for values at or beyond the usual limits of such assays; conditions: source organism: SARS-CoV1
[11] = target: HLA-A*03:01; assay: IEDB peptide-MHC binding, purified MHC/competitive/radioactivity; filed as Kd, often an IC50 or EC50 that approximates it; ≥ and ≤ were set here for values at or beyond the usual limits of such assays; conditions: source organism: Dengue virus 4 Philippines/H241/1956
[12] = target: HLA-A*24:02; assay: IEDB peptide-MHC binding, purified MHC/competitive/fluorescence; ≥ and ≤ were set here for values at or beyond the usual limits of such assays; conditions: source organism: Zaire ebolavirus
[13] = target: HLA-B*53:01; assay: IEDB peptide-MHC binding, purified MHC/competitive/radioactivity; filed as Kd, often an IC50 or EC50 that approximates it; ≥ and ≤ were set here for values at or beyond the usual limits of such assays
[14] = target: HLA-A*32:01; assay: as above
[15] = target: HLA-A*26:01; assay: as above
[16] = target: HLA-A*29:02; assay: as above; conditions: source organism: Mammarenavirus brazilense
[17] = target: HLA-A*24:02; assay: as above; conditions: source organism: Mammarenavirus brazilense
[18] = target: HLA-A*01:01; assay: as above; conditions: source organism: Mammarenavirus brazilense
[19] = target: HLA-A*30:02; assay: as above; conditions: source organism: Mammarenavirus brazilense
[20] = target: HLA-A*23:01; assay: as above; conditions: source organism: Mammarenavirus brazilense
[21] = source organism: SARS coronavirus Tor2
[22] = source organism: Lymphocytic choriomeningitis virus (strain Armstrong)
[23] = source organism: Dengue virus 2 Jamaica/1409/1983
[24] = source organism: Dengue virus 3 Martinique/1243/1999
[25] = source organism: Dengue virus 4 Philippines/H241/1956
[26] = source organism: Mammarenavirus brazilense

**Q.** With ADVFHLYLQY as the sequence, how does the Kd [1, 21] read?
**A.** 16500 nM

**Q.** What about the Kd [2, 21] of the same sequence?
**A.** ≥ 39800 nM

**Q.** What about the Kd [3, 21] of the same sequence?
**A.** 2420 nM

**Q.** What about the Kd [4, 21] of the same sequence?
**A.** 11400 nM

**Q.** What about the Kd [5, 21] of the same sequence?
**A.** ≥ 20700 nM

**Q.** What about the Kd [6, 21] of the same sequence?
**A.** 147 nM

**Q.** With AEILPDTTY as the sequence, how does the Kd [1, 22] read?
**A.** 6010 nM

**Q.** And the Kd [2, 22]?
**A.** 14000 nM

**Q.** And the Kd [3, 22]?
**A.** 97.8 nM

**Q.** What about the Kd [4, 22] of the same sequence?
**A.** 1230 nM

**Q.** And the Kd [5, 22]?
**A.** 1410 nM

**Q.** What about the Kd [6, 22] of the same sequence?
**A.** 100 nM

**Q.** With AEPPFGDSYI as the sequence, how does the Kd [1, 23] read?
**A.** 1990 nM

**Q.** What about the Kd [3, 23] of the same sequence?
**A.** 432 nM

**Q.** And the Kd [6, 23]?
**A.** 79.3 nM

**Q.** For ASKTINALV, which Kd ([7]; source organism: Vaccinia virus WR) is on record?
**A.** 0.175 nM

**Q.** What does the source list for AVDPAKAYK?
**A.** Kd [8]: 3420 nM; Kd [9]: 553 nM; Kd [10]: 293 nM

**Q.** How did the Kd [7, 24] turn out when AVSRGSAKLQ was run?
**A.** 1290 nM

**Q.** AWRTATLIL was tested. Which Kd [7, 24] did it give?
**A.** 592 nM

**Q.** How did the Kd [7, 25] turn out when CLRRRVTRK was run?
**A.** 3140 nM

**Q.** What about the Kd [11] of the same sequence?
**A.** 2.7 nM

**Q.** Which IC50 [12] does the source give for DFQESADSF here?
**A.** 55000 nM

**Q.** How did the Kd [13, 25] turn out when EPDYEVDEDI was run?
**A.** 1170 nM

**Q.** With ETRAETWMSS as the sequence, how does the Kd [14, 25] read?
**A.** ≥ 47200 nM

**Q.** And the Kd [15, 25]?
**A.** 504 nM

**Q.** Which Kd [13, 24] does the source give for FPQSNAPIQ here?
**A.** 69.8 nM

**Q.** For GERSRCYSLY, which Kd [16] is on record?
**A.** 14400 nM

**Q.** What about the Kd [14, 26] of the same sequence?
**A.** ≥ 69900 nM

**Q.** And the Kd [17]?
**A.** ≥ 70300 nM

**Q.** And the Kd [7, 26]?
**A.** 5430 nM

**Q.** What about the Kd [18] of the same sequence?
**A.** ≥ 26700 nM

**Q.** What about the Kd [15, 26] of the same sequence?
**A.** ≥ 69700 nM

**Q.** And the Kd [19]?
**A.** 718 nM

**Q.** And the Kd [20]?
**A.** ≥ 70000 nM
